T1: Human glycophorin A extract (hGPA extract) (human, UniProt P02724 20-150)
T1 construct: also called human GPA extracted from red blood cells (extract)
T1 sequence (looked up): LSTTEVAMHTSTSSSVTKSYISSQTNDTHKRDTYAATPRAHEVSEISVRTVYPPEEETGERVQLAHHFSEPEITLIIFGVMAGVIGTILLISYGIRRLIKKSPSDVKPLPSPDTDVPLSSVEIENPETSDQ

T2: Human glycophorin A on human erythrocytes (human, UniProt P02724 20-150)
T2 construct: whole, on cells; Target of the flow cytometry assays on human erythrocytes; also called human GPA; hGPA
T2 sequence (looked up): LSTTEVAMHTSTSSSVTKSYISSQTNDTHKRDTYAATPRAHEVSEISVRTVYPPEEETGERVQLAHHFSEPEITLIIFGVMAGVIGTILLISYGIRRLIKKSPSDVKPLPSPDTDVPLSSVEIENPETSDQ

B1: Humanized 10F7-M10 Fab (non-affinity matured) (Fab)
heavy: EVQLLESGGGLVQPGKSLRLSCKASGYTFNSYFMHWVRQAPGKGLEWVGMIRPNGGTTDYNEKFKNRFTLSVDKSKNTAYLQMNSLRAEDTAVYYCARWEGSYYALDYWGQGTASTKGPSVFPLAPSSKSTSGGTAALGCLVKDYFPEPVTVSWNSGALTSGVHTFPAVLQSSGLYSLSSVVTVPSSSLGTQTYICNVNHKPSNTKVDKKVEPKSC
light: EITLTQSPATLSLSPGERATLSCRASSNVKYMYWYQQKPGQAPRLWIYYTSNLASGIPDRFSGSGSGTDYTLTISRLEPEDFAVYYCQQFTSSPYTFGQGTKVEVKRTVAAPSVFIFPPSDEQLKSGTASVVCLLNNFYPREAKVQWKVDNALQSGNSQESVTEQDSKDSTYSLSSTLTLSKADYEKHKVYACEVTHQGLSSPVTKSFNRGEC
notes: Soluble Fab expressed in HEK cells; also called clone m10; wild-type 10F7-M10
B2: Humanized & affinity matured 10F7-M10 Fab clone L1+2-8 (Fab)
heavy: EVQLLESGGGLVQPGKSLRLSCKASGYTFNSYFMHWVRQAPGKGLEWVGMIRPNGGTTDYNEKFKNRFTLSVDKSKNTAYLQMNSLRAEDTAVYYCARWEGSYYALDYWGQGTASTKGPSVFPLAPSSKSTSGGTAALGCLVKDYFPEPVTVSWNSGALTSGVHTFPAVLQSSGLYSLSSVVTVPSSSLGTQTYICNVNHKPSNTKVDKKVEPKSC
light: EITLTQSPATLSLSPGERATLSCRASSNVIDMYWYQQKPGQAPRLWIHHTSYLASGIPDRFSGSGSGTDYTLTISRLEPEDFAVYYCQQFTSSPYTFGQGTKVEVKRTVAAPSVFIFPPSDEQLKSGTASVVCLLNNFYPREAKVQWKVDNALQSGNSQESVTEQDSKDSTYSLSSTLTLSKADYEKHKVYACEVTHQGLSSPVTKSFNRGEC
notes: Soluble Fab from HEK cells; all domains other than VL are the same as wild-type 10F7-M10; also called ID-HH-Y
B3: Humanized & affinity matured 10F7-M10 Fab clone L1+2-21 (Fab)
heavy: EVQLLESGGGLVQPGKSLRLSCKASGYTFNSYFMHWVRQAPGKGLEWVGMIRPNGGTTDYNEKFKNRFTLSVDKSKNTAYLQMNSLRAEDTAVYYCARWEGSYYALDYWGQGTASTKGPSVFPLAPSSKSTSGGTAALGCLVKDYFPEPVTVSWNSGALTSGVHTFPAVLQSSGLYSLSSVVTVPSSSLGTQTYICNVNHKPSNTKVDKKVEPKSC
light: EITLTQSPATLSLSPGERATLSCRASSNVYFMYWYQQKPGQAPRLWIHHTSVLASGIPDRFSGSGSGTDYTLTISRLEPEDFAVYYCQQFTSSPYTFGQGTKVEVKRTVAAPSVFIFPPSDEQLKSGTASVVCLLNNFYPREAKVQWKVDNALQSGNSQESVTEQDSKDSTYSLSSTLTLSKADYEKHKVYACEVTHQGLSSPVTKSFNRGEC
notes: Soluble Fab from HEK cells; all domains other than VL are the same as wild-type 10F7-M10; also called YF-HH-V
B4: Humanized & affinity matured 10F7-M10 Fab clone L1+2-10 (Fab)
heavy: EVQLLESGGGLVQPGKSLRLSCKASGYTFNSYFMHWVRQAPGKGLEWVGMIRPNGGTTDYNEKFKNRFTLSVDKSKNTAYLQMNSLRAEDTAVYYCARWEGSYYALDYWGQGTASTKGPSVFPLAPSSKSTSGGTAALGCLVKDYFPEPVTVSWNSGALTSGVHTFPAVLQSSGLYSLSSVVTVPSSSLGTQTYICNVNHKPSNTKVDKKVEPKSC
light: EITLTQSPATLSLSPGERATLSCRASSNVWFMYWYQQKPGQAPRLWIHHTSELASGIPDRFSGSGSGTDYTLTISRLEPEDFAVYYCQQFTSSPYTFGQGTKVEVKRTVAAPSVFIFPPSDEQLKSGTASVVCLLNNFYPREAKVQWKVDNALQSGNSQESVTEQDSKDSTYSLSSTLTLSKADYEKHKVYACEVTHQGLSSPVTKSFNRGEC
notes: Soluble Fab from HEK cells; all domains other than VL are the same as wild-type 10F7-M10; also called WF-HH-E
B5: Humanized & affinity matured 10F7-M10 Fab clone L1+2-14 (Fab)
heavy: EVQLLESGGGLVQPGKSLRLSCKASGYTFNSYFMHWVRQAPGKGLEWVGMIRPNGGTTDYNEKFKNRFTLSVDKSKNTAYLQMNSLRAEDTAVYYCARWEGSYYALDYWGQGTASTKGPSVFPLAPSSKSTSGGTAALGCLVKDYFPEPVTVSWNSGALTSGVHTFPAVLQSSGLYSLSSVVTVPSSSLGTQTYICNVNHKPSNTKVDKKVEPKSC
light: EITLTQSPATLSLSPGERATLSCRASSNVHQMYWYQQKPGQAPRLWIHHTSKLASGIPDRFSGSGSGTDYTLTISRLEPEDFAVYYCQQFTSSPYTFGQGTKVEVKRTVAAPSVFIFPPSDEQLKSGTASVVCLLNNFYPREAKVQWKVDNALQSGNSQESVTEQDSKDSTYSLSSTLTLSKADYEKHKVYACEVTHQGLSSPVTKSFNRGEC
notes: Soluble Fab from HEK cells; all domains other than VL are the same as wild-type 10F7-M10; also called HQ-HH-K
B6: Humanized & affinity matured 10F7-M10 Fab clone L1+2-17 (Fab)
heavy: EVQLLESGGGLVQPGKSLRLSCKASGYTFNSYFMHWVRQAPGKGLEWVGMIRPNGGTTDYNEKFKNRFTLSVDKSKNTAYLQMNSLRAEDTAVYYCARWEGSYYALDYWGQGTASTKGPSVFPLAPSSKSTSGGTAALGCLVKDYFPEPVTVSWNSGALTSGVHTFPAVLQSSGLYSLSSVVTVPSSSLGTQTYICNVNHKPSNTKVDKKVEPKSC
light: EITLTQSPATLSLSPGERATLSCRASSNVYFMYWYQQKPGQAPRLWIHHTSDLASGIPDRFSGSGSGTDYTLTISRLEPEDFAVYYCQQFTSSPYTFGQGTKVEVKRTVAAPSVFIFPPSDEQLKSGTASVVCLLNNFYPREAKVQWKVDNALQSGNSQESVTEQDSKDSTYSLSSTLTLSKADYEKHKVYACEVTHQGLSSPVTKSFNRGEC
notes: Soluble Fab from HEK cells; all domains other than VL are the same as wild-type 10F7-M10; also called YF-HH-D
B7: Humanized & affinity matured 10F7-M10 Fab clone L1+2-25 (Fab)
heavy: EVQLLESGGGLVQPGKSLRLSCKASGYTFNSYFMHWVRQAPGKGLEWVGMIRPNGGTTDYNEKFKNRFTLSVDKSKNTAYLQMNSLRAEDTAVYYCARWEGSYYALDYWGQGTASTKGPSVFPLAPSSKSTSGGTAALGCLVKDYFPEPVTVSWNSGALTSGVHTFPAVLQSSGLYSLSSVVTVPSSSLGTQTYICNVNHKPSNTKVDKKVEPKSC
light: EITLTQSPATLSLSPGERATLSCRASSNVAWMYWYQQKPGQAPRLWIYHTSKLASGIPDRFSGSGSGTDYTLTISRLEPEDFAVYYCQQFTSSPYTFGQGTKVEVKRTVAAPSVFIFPPSDEQLKSGTASVVCLLNNFYPREAKVQWKVDNALQSGNSQESVTEQDSKDSTYSLSSTLTLSKADYEKHKVYACEVTHQGLSSPVTKSFNRGEC
notes: also called L1 + 2-8-25; AW-YH-K
B8: Humanized & affinity matured 10F7-M10 Fab clone L1+2-24 (Fab)
heavy: EVQLLESGGGLVQPGKSLRLSCKASGYTFNSYFMHWVRQAPGKGLEWVGMIRPNGGTTDYNEKFKNRFTLSVDKSKNTAYLQMNSLRAEDTAVYYCARWEGSYYALDYWGQGTASTKGPSVFPLAPSSKSTSGGTAALGCLVKDYFPEPVTVSWNSGALTSGVHTFPAVLQSSGLYSLSSVVTVPSSSLGTQTYICNVNHKPSNTKVDKKVEPKSC
light: EITLTQSPATLSLSPGERATLSCRASSNVQQMYWYQQKPGQAPRLWIHHTSILASGIPDRFSGSGSGTDYTLTISRLEPEDFAVYYCQQFTSSPYTFGQGTKVEVKRTVAAPSVFIFPPSDEQLKSGTASVVCLLNNFYPREAKVQWKVDNALQSGNSQESVTEQDSKDSTYSLSSTLTLSKADYEKHKVYACEVTHQGLSSPVTKSFNRGEC
notes: Soluble Fab from HEK cells; all domains other than VL are the same as wild-type 10F7-M10; also called QQ-HH-I
B9: Humanized & affinity matured 10F7-M10 Fab clone L1+2-15 (Fab)
heavy: EVQLLESGGGLVQPGKSLRLSCKASGYTFNSYFMHWVRQAPGKGLEWVGMIRPNGGTTDYNEKFKNRFTLSVDKSKNTAYLQMNSLRAEDTAVYYCARWEGSYYALDYWGQGTASTKGPSVFPLAPSSKSTSGGTAALGCLVKDYFPEPVTVSWNSGALTSGVHTFPAVLQSSGLYSLSSVVTVPSSSLGTQTYICNVNHKPSNTKVDKKVEPKSC
light: EITLTQSPATLSLSPGERATLSCRASSNVFYMYWYQQKPGQAPRLWIHHTSWLASGIPDRFSGSGSGTDYTLTISRLEPEDFAVYYCQQFTSSPYTFGQGTKVEVKRTVAAPSVFIFPPSDEQLKSGTASVVCLLNNFYPREAKVQWKVDNALQSGNSQESVTEQDSKDSTYSLSSTLTLSKADYEKHKVYACEVTHQGLSSPVTKSFNRGEC
notes: Soluble Fab from HEK cells; all domains other than VL are the same as wild-type 10F7-M10; also called FY-HH-W
B10: Humanized & affinity matured 10F7-M10 Fab clone L1+2-1 (Fab)
heavy: EVQLLESGGGLVQPGKSLRLSCKASGYTFNSYFMHWVRQAPGKGLEWVGMIRPNGGTTDYNEKFKNRFTLSVDKSKNTAYLQMNSLRAEDTAVYYCARWEGSYYALDYWGQGTASTKGPSVFPLAPSSKSTSGGTAALGCLVKDYFPEPVTVSWNSGALTSGVHTFPAVLQSSGLYSLSSVVTVPSSSLGTQTYICNVNHKPSNTKVDKKVEPKSC
light: EITLTQSPATLSLSPGERATLSCRASSNVFFMYWYQQKPGQAPRLWIHHTSNLASGIPDRFSGSGSGTDYTLTISRLEPEDFAVYYCQQFTSSPYTFGQGTKVEVKRTVAAPSVFIFPPSDEQLKSGTASVVCLLNNFYPREAKVQWKVDNALQSGNSQESVTEQDSKDSTYSLSSTLTLSKADYEKHKVYACEVTHQGLSSPVTKSFNRGEC
notes: Soluble Fab from HEK cells; all domains other than VL are the same as wild-type 10F7-M10; also called FF-HH-N

Experiments:
[1] = target: T1, Human glycophorin A extract (hGPA …); assay: Octet BLI, hGPA extract, apparent
[2] = target: T1, Human glycophorin A extract (hGPA …); assay: Biacore SPR, hGPA extract, apparent
[3] = target: T1, Human glycophorin A extract (hGPA …); assay: Octet BLI, hGPA extract, apparent KD
[4] = target: T1, Human glycophorin A extract (hGPA …); assay: Biacore SPR, hGPA extract, apparent KD
[5] = target: T2, Human glycophorin A on human …; assay: flow cytometry (FACS) on human erythrocytes, soluble Fab

| Binder | koff [1] [s⁻¹] | kon [1] [M⁻¹ s⁻¹] | koff [2] [s⁻¹] | kon [2] [M⁻¹ s⁻¹] | Kd [3] [nM] | Kd [4] [nM] | EC50 [5] [nM] |
| --- | --- | --- | --- | --- | --- | --- | --- |
| B1 | 0.0067 | 47000 | 0.00667 | 47300 | 140 | 141 | 73 |
| B2 | 0.0022 | 200000 | 0.00218 | 198000 | 11 | 11 | 14 |
| B3 | 0.0013 | 260000 | 0.00132 | 257000 | 5.1 | 5.12 | 3.7 |
| B4 | 0.0014 | 220000 | 0.00143 | 222000 | 6.4 | 6.43 | 3.3 |
| B5 | 0.00057 | 17000 | 0.000568 | 17300 | 33 | 32.8 | 6.4 |
| B6 | 0.00093 | 160000 | 0.000931 | 156000 | 6 | 5.97 | 3.4 |
| B7 | – | – | – | – | – | – | 100 |
| B8 | 0.008 | 380000 | 0.00802 | 382000 | 21 | 21 | 23 |
| B9 | 0.0016 | 220000 | 0.00155 | 222000 | 7 | 7 | 3.4 |
| B10 | 0.0018 | 310000 | 0.00185 | 311000 | 5.9 | 5.95 | 3.3 |

From patent US20220153859A1 (ANOKION, published 2022)
